In publication PMC10629668:

Target: serpin-6, endogenous in silkworm hemolymph (Bombyx mori (endogenous in larval hemolymph))
Experiment: co-IP; antibodies against serpin-1 or serpin-6; hemolymph of naive larvae or of larvae 24 h after injection of LPS, PGN or CDN; immunoblot with antibodies against serpin-1a, serpin-6 and CLIP2

“CLIP2, endogenous in silkworm hemolymph (enzyme)” was tested, and the intensity of the complex against the CLIP2-serpin-1a complex (after PAMPs stimulation, control hemolymph subtracted) was 2 fold.
